Measured values published in the supplement of paper PMC10724198.
± gives the standard deviation of the averaged measurements.

Experiments:
[1] = test system: Saccharomyces cerevisiae; assay: protein stability index of tFT-peptide fusion (C-terminal peptide) (PSI (0-1 scale)); higher = more stable (slower turnover)
Procedure: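 MPS profiling in S. cerevisiae of the tFT-X12 degron library: putative degron peptides plus stable controls, 12 aa, fused to the C-terminus of a sfGFP-mCherry timer. Cells are FACS-sorted into 8 mCherry/sfGFP bins and deep-sequenced. PSI runs from 0 (unstable) to 1 (stable). Backgrounds are wild type, das1Δ and doa10Δ at 30 °C, and wild type, das1Δ, cdc34-1 and cdc53-1 at 37 °C; 2-3 technical replicates each.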

[2] = test system: Saccharomyces cerevisiae; assay: as above; conditions: genetic background: wild type; temperature: 30 C
[3] = genetic background: cdc34-1, temperature: 37 C
[4] = genetic background: cdc53-1, temperature: 37 C
[5] = genetic background: das1 deletion, temperature: 30 C
[6] = genetic background: das1 deletion, temperature: 37 C
[7] = genetic background: doa10 deletion, temperature: 30 C
[8] = genetic background: wild type, temperature: 30 C
[9] = genetic background: wild type, temperature: 37 C
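Further: PSI is a weighted mean of sequencing reads over stability bins, variants kept only with over 10 reads, mCherry proximal and sfGFP distal, peptide attached via GGGS linker.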

VFFFVSFFAFSS gave a protein stability index [1, 3] of 0.213 ± 0.0054, a protein stability index [1, 4] of 0.3558 ± 0.0034 and a protein stability index [1, 5] of 0.22 ± 0.029. For the same sequence, the protein stability index [1, 6] was 0.406 ± 0.0024, the protein stability index [1, 7] was 0.172 ± 0.016 and the protein stability index [1, 8] was 0.179 ± 0.04. For the same sequence, the protein stability index [1, 9] was 0.3544 ± 0.0014 and the protein stability index [2] was 0.288 ± 0.053.

With VFFLSFIFRFFL the protein stability index [1, 3] was 0.594 ± 0.022, the protein stability index [1, 4] was 0.558 ± 0.02 and the protein stability index [1, 5] was 0.508 ± 0.035. It also gave a protein stability index [1, 6] of 0.547 ± 0.013, a protein stability index [1, 7] of 0.482 ± 0.021 and a protein stability index [1, 8] of 0.454 ± 0.0048. For the same sequence, the protein stability index [1, 9] was 0.55 ± 0.087 and the protein stability index [2] was 0.532 ± 0.048.

For VFFPCRLLPLLF, the protein stability index [1, 3] was 0.517 ± 0.0066, the protein stability index [1, 4] was 0.585 ± 0.0073 and the protein stability index [1, 5] was 0.479 ± 0.03. It also gave a protein stability index [1, 6] of 0.595 ± 0.026, a protein stability index [1, 7] of 0.1658 ± 0.0011 and a protein stability index [1, 8] of 0.167 ± 0.014. It also gave a protein stability index [1, 9] of 0.286 ± 0.01 and a protein stability index [2] of 0.27 ± 0.023.

VFFRVLVAGCRQ was tested, and the protein stability index [1, 3] was 0.537 ± 0.04, the protein stability index [1, 4] was 0.618 ± 0.021 and the protein stability index [1, 5] was 0.451 ± 0.022. For the same sequence, the protein stability index [1, 6] was 0.5761 ± 0.0052, the protein stability index [1, 7] was 0.449 ± 0.0066 and the protein stability index [1, 8] was 0.468 ± 0.0052. It also gave a protein stability index [1, 9] of 0.568 ± 0.028 and a protein stability index [2] of 0.522 ± 0.084.

For VFGCHHLEVSVC, the protein stability index [1, 3] was 0.248 ± 0.012, the protein stability index [1, 4] was 0.267 ± 0.0036 and the protein stability index [1, 5] was 0.259 ± 0.034. For the same sequence, the protein stability index [1, 6] was 0.377 ± 0.0065, the protein stability index [1, 7] was 0.203 ± 0.012 and the protein stability index [1, 8] was 0.241 ± 0.024. For the same sequence, the protein stability index [1, 9] was 0.34 ± 0.012 and the protein stability index [2] was 0.34 ± 0.0065.

VFGVWVVVGCVG showed a protein stability index [1, 3] of 0.028 ± 0.007, a protein stability index [1, 4] of 0.101 ± 0.03 and a protein stability index [1, 5] of 0.149 ± 0.037. It also gave a protein stability index [1, 6] of 0.215 ± 0.01, a protein stability index [1, 7] of 0.123 ± 0.019 and a protein stability index [1, 8] of 0.143 ± 0.013. The protein stability index [1, 9] was 0.197 ± 0.013 and the protein stability index [2] was 0.248 ± 0.0043.

With VFRECSFFLVCC the protein stability index [1, 3] was 0.255 ± 0.0076, the protein stability index [1, 4] was 0.287 ± 0.011 and the protein stability index [1, 5] was 0.281 ± 0.026. It also gave a protein stability index [1, 6] of 0.366 ± 0.0094, a protein stability index [1, 7] of 0.224 ± 0.0033 and a protein stability index [1, 8] of 0.252 ± 0.032. It also gave a protein stability index [1, 9] of 0.315 ± 0.016 and a protein stability index [2] of 0.333 ± 0.036.

With VFRHFYTFLALC the protein stability index [1, 3] was 0.338 ± 0.043, the protein stability index [1, 4] was 0.414 ± 0.013 and the protein stability index [1, 5] was 0.472 ± 0.014. For the same sequence, the protein stability index [1, 6] was 0.5932 ± 0.0029, the protein stability index [1, 7] was 0.111 ± 0.0013 and the protein stability index [1, 8] was 0.0988 ± 0.017. It also gave a protein stability index [1, 9] of 0.132 ± 0.018 and a protein stability index [2] of 0.16 ± 0.0087.

For VFTGYSAFLLLC, the protein stability index [1, 3] was 0.325 ± 0.011, the protein stability index [1, 4] was 0.578 ± 0.025 and the protein stability index [1, 5] was 0.487 ± 0.025. It also gave a protein stability index [1, 6] of 0.6366 ± 0.0041, a protein stability index [1, 7] of 0.0796 ± 0.016 and a protein stability index [1, 8] of 0.0748 ± 0.014. For the same sequence, the protein stability index [1, 9] was 0.0721 ± 0.0049 and the protein stability index [2] was 0.144 ± 0.011.

Sequence VGASLVVIAIGV has a protein stability index [1, 3] of 0.5122 ± 0.0012, a protein stability index [1, 4] of 0.5401 ± 0.0048 and a protein stability index [1, 5] of 0.377 ± 0.034. The protein stability index [1, 6] was 0.5445 ± 0.0033, the protein stability index [1, 7] was 0.3442 ± 0.0029 and the protein stability index [1, 8] was 0.387 ± 0.012. For the same sequence, the protein stability index [1, 9] was 0.5181 ± 0.0048 and the protein stability index [2] was 0.466 ± 0.032.

Work on VGKGAGVRDGSR yielded a protein stability index [1, 3] of 0.693 ± 0.068, a protein stability index [1, 4] of 0.751 ± 0.019 and a protein stability index [1, 5] of 0.623 ± 0.0077. For the same sequence, the protein stability index [1, 6] was 0.7598 ± 0.0072, the protein stability index [1, 7] was 0.651 ± 0.017 and the protein stability index [1, 8] was 0.645 ± 0.011. It also gave a protein stability index [1, 9] of 0.713 ± 0.016 and a protein stability index [2] of 0.707 ± 0.026.

With VGLLFGWVWSLW the protein stability index [1, 3] was 0.644 ± 0.02, the protein stability index [1, 4] was 0.72401 ± 0.00029 and the protein stability index [1, 5] was 0.56 ± 0.026. The protein stability index [1, 6] was 0.6999 ± 0.0055, the protein stability index [1, 7] was 0.5556 ± 0.0007 and the protein stability index [1, 8] was 0.545 ± 0.0096. For the same sequence, the protein stability index [1, 9] was 0.674 ± 0.015 and the protein stability index [2] was 0.485 ± 0.021.

VGLWFLCSLAFS was tested, and the protein stability index [1, 3] was 0.444 ± 0.0079, the protein stability index [1, 4] was 0.478 ± 0.015 and the protein stability index [1, 5] was 0.34 ± 0.037. It also gave a protein stability index [1, 6] of 0.5344 ± 0.0014, a protein stability index [1, 7] of 0.308 ± 0.015 and a protein stability index [1, 8] of 0.346 ± 0.023. For the same sequence, the protein stability index [1, 9] was 0.495 ± 0.007 and the protein stability index [2] was 0.401 ± 0.006.

Sequence VGYSLFTFLFCA has a protein stability index [1, 3] of 0.579 ± 0.014, a protein stability index [1, 4] of 0.6313 ± 0.0052 and a protein stability index [1, 5] of 0.481 ± 0.03. It also gave a protein stability index [1, 6] of 0.6315 ± 0.0016, a protein stability index [1, 7] of 0.303 ± 0.011 and a protein stability index [1, 8] of 0.335 ± 0.017. It also gave a protein stability index [1, 9] of 0.51 ± 0.027 and a protein stability index [2] of 0.432 ± 0.0057.

VIQKKKKNKITS showed a protein stability index [1, 3] of 0.617 ± 0.004, a protein stability index [1, 4] of 0.729 ± 0.014 and a protein stability index [1, 5] of 0.65 ± 0.022. It also gave a protein stability index [1, 6] of 0.7265 ± 0.0018, a protein stability index [1, 7] of 0.197 ± 0.011 and a protein stability index [1, 8] of 0.238 ± 0.013. The protein stability index [1, 9] was 0.408 ± 0.016 and the protein stability index [2] was 0.346 ± 0.033.

VIVIQGFVFVLG gave a protein stability index [1, 3] of 0.2898 ± 0.0021, a protein stability index [1, 4] of 0.426 ± 0.033 and a protein stability index [1, 5] of 0.267 ± 0.033. It also gave a protein stability index [1, 6] of 0.482 ± 0.0059, a protein stability index [1, 7] of 0.234 ± 0.0035 and a protein stability index [1, 8] of 0.248 ± 0.035. The protein stability index [1, 9] was 0.421 ± 0.0092 and the protein stability index [2] was 0.279 ± 0.073.

Work on VLFSVWFFLVLV yielded a protein stability index [1, 3] of 0.0557 ± 0.017, a protein stability index [1, 4] of 0.0354 ± 0.0069 and a protein stability index [1, 5] of 0.122 ± 0.032. For the same sequence, the protein stability index [1, 6] was 0.134 ± 0.0075, the protein stability index [1, 7] was 0.241 ± 0.015 and the protein stability index [1, 8] was 0.103 ± 0.035. It also gave a protein stability index [1, 9] of 0.127 ± 0.04 and a protein stability index [2] of 0.117 ± 0.017.

Sequence VLVLLVCVAALV has a protein stability index [1, 3] of 0.1393 ± 0.00032, a protein stability index [1, 4] of 0.222 ± 0.0053 and a protein stability index [1, 5] of 0.163 ± 0.023. It also gave a protein stability index [1, 6] of 0.295 ± 0.017, a protein stability index [1, 7] of 0.1463 ± 0.00088 and a protein stability index [1, 8] of 0.163 ± 0.025. It also gave a protein stability index [1, 9] of 0.244 ± 0.014 and a protein stability index [2] of 0.239 ± 0.0026.

For VLVRVIYLLVSG, the protein stability index [1, 3] was 0.276 ± 0.007, the protein stability index [1, 4] was 0.373 ± 0.013 and the protein stability index [1, 5] was 0.23 ± 0.038. For the same sequence, the protein stability index [1, 6] was 0.469 ± 0.0053, the protein stability index [1, 7] was 0.178 ± 0.026 and the protein stability index [1, 8] was 0.234 ± 0.029. It also gave a protein stability index [1, 9] of 0.404 ± 0.017 and a protein stability index [2] of 0.347 ± 0.02.
